Assay results reported in US20240425587A1 (Alector, published 2024).
Changes are numbered by the printed parent chain.

B1: A4 (antibody, V domains shown)
VH: QVQLVQSGAEVKKPGSSVKVSCKASGYTFTGYAVNWVRQAPGQGLEWMGGIIPIFGTANYAQKFQGRVTITADESTSTAYMELSSLRSEDTAVYYCARNLGYSSGWSGYYYGMDVWGQGTMVTVSS
VL: EIVMTQSPATLSVSPGERATLSCRASQSVSSNYLAWYQQKPGQAPRLLIYGASTRATGIPARFSGSGSGTEFTLTISSLQSEDFAVYYCQQYGSSSFTFGPGTKLEIK
notes: phage campaign
B2: A6 (antibody, V domains shown)
VH: QVQLVQSGAEVKKPGSSVKVSCKASGYTFINYDINWVRQAPGQGLEWMGGIIPIFGAPVYAQDFQGRVTITADESTSTAYMELSSLRSEDTAVYYCAIADGAGWFDPWGQGTLVTVSS
VL: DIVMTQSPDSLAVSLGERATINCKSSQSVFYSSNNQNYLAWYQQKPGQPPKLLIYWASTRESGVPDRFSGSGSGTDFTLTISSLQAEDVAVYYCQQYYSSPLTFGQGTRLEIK
notes: phage campaign
B3: A7 (antibody, V domains shown)
VH: B2 VH with I30T, N31S, A57T, P58A, V59N, D63K, S77G
VL: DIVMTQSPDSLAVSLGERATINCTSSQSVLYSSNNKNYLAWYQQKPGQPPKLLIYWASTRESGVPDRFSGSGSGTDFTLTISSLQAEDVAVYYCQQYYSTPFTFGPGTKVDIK
notes: phage campaign
B4: A16 (antibody, human IgG1, kappa, L234A L235A, V domains shown)
VH: B2 VH with T28N, I30L, I34V, A57T, P58A, V59N, D63K, I98T, A99G, D100V
VL: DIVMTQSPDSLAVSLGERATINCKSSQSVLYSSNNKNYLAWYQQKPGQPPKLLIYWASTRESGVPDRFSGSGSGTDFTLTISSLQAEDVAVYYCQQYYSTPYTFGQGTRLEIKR
B5: A9 (antibody, V domains shown)
VH: QVQLVQSGAEVKKPGSSVKVSCKASGYTFTDYAISWVRQAPGQGLEWMGGITPVFGTPSYAQKFQGRVTITADESTSTAYMELSSLRSEDTAVYYCARGWELRRDPFDYWGQGTLVTVSS
VL: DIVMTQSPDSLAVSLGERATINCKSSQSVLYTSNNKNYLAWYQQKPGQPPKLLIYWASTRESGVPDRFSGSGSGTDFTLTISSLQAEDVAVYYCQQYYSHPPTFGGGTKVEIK
notes: phage campaign
B6: A10 (antibody, V domains shown)
VH: QVQLVQSGAEVKKPGASVKVSCKASGYTFTDYYIHWVRQAPGQGLEWMGWMNPNSGNTGYAQKFQGRVTMTRDTSTSTVYMELSSLRSEDTAVYYCAREGSSGWYVDYWGQGTLVTVSS
VL: DIQMTQSPSSLSASVGDRVTITCQASQDISQFLNWYQQKPGKAPKLLIYDAYSLQSGVPSRFSGSGSGTDFTLTISSLQPEDFATYYCQQANSFPLTFGQGTKVEIK
notes: phage campaign
B7: A5 (antibody, V domains shown)
VH: QVQLVQSGAEVKKPGSSVKVSCKASGYTFTDYYMNWVRQAPGQGLEWMGGIIPIFGTADYAQRFQGRVTITADESTSTAYMELSSLRSEDTAVYYCARDAGYYGMDVWGQGTLVTVSS
VL: EIVMTQSPATLSVSPGERATLSCRASQSVSNYLAWYQQKPGQAPRLLIYGASTRATGIPARFSGSGSGTEFTLTISSLQSEDFAVYYCQQFDDLPLTFGPGTKVEIK
notes: phage campaign
B8: A3 (antibody, V domains shown)
VH: EVQLLESGGGLVQPGGSLRLSCAASGFTFSRYEMNWVRQAPGKGLEWVAGISYDGSYEYYADSVKGRFTISRDNSKNTLYLQMNSLRAEDTAVYYCAKGSYGYDAFDIWGQGTMVTVSS
VL: DIQMTQSPSSLSASVGDRVTITCRASQSISSWLAWYQQKPGKAPKLLIYATSTLQSGVPSRFSGSGSGTDFTLTISSLQPEDFATYYCQQSYSPPYTFGQGTKVEIK
notes: phage campaign
B9: E21 (antibody, V domains shown)
VH: QVQLVQSGAEVKKPGSSVKVSCKASGYTFSNYDINWVRQAPGQGLEWMGGIIPIFGTANYALKFQGRVTITADESTSTAYMELSSLRSEDTAVYYCARGGPWLYFDYWGQGTLVTVSS
VL: B8 VL with S31T, W32Y, A34N, T51A, P94S, Y96L, V104L
notes: phage campaign
B10: E5 (antibody, V domains shown)
VH: QVQLVQSGAEVKKPGSSVKVSCKASGYTFTSYGINWVRQAPGQGLEWMGWINPNSGDTLYAQNFQGRVTITADESTSTAYMELSSLRSEDTAVYYCARGPEPYWYFDLWGRGTLVTVSS
VL: EIVMTQSPATLSVSPGERATLSCRASQNIDSRFLAWYQQKPGQAPRLLIYGASTRATGIPARFSGSGSGTEFTLTISSLQSEDFAVYYCQQSFSTPLTFGGGTKVEIK
B11: A1 (antibody, V domains shown)
VH: QVQLVQSGAEVKKPGSSVKVSCKASGYTFINHDINWVRQAPGQGLEWMGWMNPNSGNTGYAQKFQGRVTITADESTSTAYMELSSLRSEDTAVYYCARDRRGSYYGLMDWFDPWGQGTLVTVSS
VL: DIQMTQSPSSLSASVGDRVTITCRASQSISRWLAWYQQKPGKAPKLLIYDASNLETGVPSRFSGSGSGTDFTLTISSLQPEDFATYYCQQSYSTPSFGQGTKVEIK
notes: phage campaign
B12: D1 (antibody, V domains shown)
VH: QVQLQQSGVELARPGASVKLSCKASGYNFTSYGINWVKQRTGQGLEWIGKSYPTSGNNYYNEKFKGKATVTADKSSSTAYMELRSLTSEDSAVYFCGVWYGSLFAHWGQGTLVTVTA
VL: DIVMTQSQKFMSTSVGDRVRVTCKASQNVGFNVAWYQQKPGQSPKVLIYSASYRYSGVPDRFTGSGSGTDFTLTITNVQSEDLAEYFCHQYNNFPFTFGSGTKLEIK
notes: second hybridoma campaign

Biological target: T1, human PILRA, c-term His-Avi tag (human, UniProt Q9UKJ1 20-197, limits assumed)
T1 construct: not shown: C-terminal His-Avi tag
T1 sequence (Q9UKJ1 20-197 limits assumed): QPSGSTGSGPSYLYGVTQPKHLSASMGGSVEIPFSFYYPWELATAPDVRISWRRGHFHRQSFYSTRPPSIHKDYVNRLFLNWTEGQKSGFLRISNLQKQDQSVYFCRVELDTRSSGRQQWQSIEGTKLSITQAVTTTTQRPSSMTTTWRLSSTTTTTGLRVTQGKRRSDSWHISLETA
Test: SPR (Biacore), antibody captured, PILRA as analyte
Procedure: Experiments were performed to determine the kinetics of anti-PILRA antibody binding to human […]. The assay is depicted in FIG. 6. A rabbit anti-PILRA was used as a positive control, and H1 LALAPS was used as a negative control. Human PILRA (human PILRA, c-term His-Avi tag, 0.68 mg/mi) was used as the antigen. The running buffer was HBSTE/0.5% BSA, pH 7.4, and the regeneration solution was 10 mM glycine-HCl (pH 2.1). In the assay, antibodies were captured at 10 μg/ml by immobilized anti-huFc or anti-msFc on a Biacore CM5 chip, and human PILRA flowed at 33, 100, and 300 nM. The surface was regenerated after each analyte, and all curves were double-referenced with buffer injections.

Binder | Kd [nM] | koff [s⁻¹] | kon [M⁻¹ s⁻¹]
B1 | 113 | 0.005 | 44000
B2 | 86.5 | 0.0052 | 61000
B3 | 75.7 | 0.0064 | 85000
B4 | 47 | 0.0042 | 90000
B5 | 150 | 0.011 | 70000
B6 | 42.9 | 0.0054 | 130000
B7 | 32.1 | 0.0045 | 140000
B8 | 93.7 | 0.0067 | 71000
B9 | 51.3 | 0.0061 | 120000
B10 | 76.2 | 0.0061 | 80000
B11 | 99.6 | 0.0038 | 38000

Biological target: T2, PILRA Fc (soluble human PILRA) (human, UniProt Q9UKJ1 20-197, limits assumed)
T2 construct: also called soluble PILRA; not shown: Fc part, detected with anti-human IgG
T2 sequence (Q9UKJ1 20-197 limits assumed): as above
Test: flow cytometry; blocking of PILRA Fc binding to human CD3+ T cells (Donor 1019)
Procedure: The ability of conditioned media samples containing antibodies to inhibit the binding of PILRA Fc to human CD3+ T cells was assessed. Briefly, conditioned media samples containing antibodies were incubated with 1.25 ug/ml PILRA Fc for 30 min at 4° C. and then added to human T cells. After 30 minutes incubation at 4° C., cells were washed, and bound PILRA Fc was detected with anti-human IgG Alexa 647. Cells were analyzed by flow cytometry on FACS Canto II, and for all cell lines, the amount of PILRA Fc binding (MIFI) and the percentage of PILRA Fc binding in the presence of conditioned media relative to PILRA Fc binding alone was calculated. Several antibodies inhibited binding of PILRA Fc to human T cells, and a few antibodies enhanced PILRA-Fc binding to T cells. Antibodies that show enhancement in this assay may block cis inhibition to promote trans interactions or may allosterically activate to enhance trans interactions without blocking cis.

Binder | IC50 [µg/mL]
B12 | 1.6

Biological target: T3, human PILRB, ectopically expressed on 293 cells (human, UniProt Q9UKJ0 20-227)
T3 construct: also called hB
T3 sequence (Q9UKJ0 20-227): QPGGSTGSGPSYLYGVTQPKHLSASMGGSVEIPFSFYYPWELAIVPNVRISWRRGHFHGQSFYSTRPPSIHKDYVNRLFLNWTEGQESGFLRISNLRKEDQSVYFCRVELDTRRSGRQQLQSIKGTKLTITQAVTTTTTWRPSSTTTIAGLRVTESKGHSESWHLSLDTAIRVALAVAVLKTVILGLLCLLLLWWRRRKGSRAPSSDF
Test: flow cytometry, 293 cells expressing target
Procedure: (§1) Briefly, conditioned media containing antibodies were incubated with 293 cells for 30 min at 4° C., washed twice, and then detected with anti-mouse IgG Alexa 647.

Binder | binding result | EC50 [µg/mL]
B1 | no binding | –
B2 | no binding | –
B3 | no binding | –
B4 | no binding | –
B12 | no binding | –
B5 | no binding | –
B6 | no binding | –
B7 | no binding | –
B8 | no binding | –
B9 | – | 3.4
B10 | – | 0.3
B11 | no binding | –

Biological target: T4, murine PILRA, ectopically expressed on 293 cells (murine, UniProt Q2YFS3 32-302)
T4 construct: also called mA
T4 sequence (Q2YFS3 32-302): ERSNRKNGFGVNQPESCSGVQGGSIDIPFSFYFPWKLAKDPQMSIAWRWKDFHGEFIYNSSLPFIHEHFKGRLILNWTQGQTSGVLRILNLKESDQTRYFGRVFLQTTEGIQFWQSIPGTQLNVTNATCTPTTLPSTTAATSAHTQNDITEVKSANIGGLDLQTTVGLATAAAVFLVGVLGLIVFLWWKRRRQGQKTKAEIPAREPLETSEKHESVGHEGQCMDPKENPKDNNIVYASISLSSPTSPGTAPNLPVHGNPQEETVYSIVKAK
Test: flow cytometry, 293 cells expressing target
Procedure: as §1

Binder | binding result
B1 | no binding
B2 | no binding
B3 | no binding
B4 | no binding
B12 | no binding
B5 | no binding
B6 | no binding
B7 | no binding
B8 | no binding
B9 | no binding
B10 | no binding
B11 | no binding

Biological target: T5, human PILRA, G78 variant, ectopically expressed on 293 cells (human, UniProt Q9UKJ1 20-303)
T5 construct: the cells are labelled G78; also called hA G78 OE; hA
T5 sequence (Q9UKJ1 other isoform, or with tags, fused parts or gaps mutant): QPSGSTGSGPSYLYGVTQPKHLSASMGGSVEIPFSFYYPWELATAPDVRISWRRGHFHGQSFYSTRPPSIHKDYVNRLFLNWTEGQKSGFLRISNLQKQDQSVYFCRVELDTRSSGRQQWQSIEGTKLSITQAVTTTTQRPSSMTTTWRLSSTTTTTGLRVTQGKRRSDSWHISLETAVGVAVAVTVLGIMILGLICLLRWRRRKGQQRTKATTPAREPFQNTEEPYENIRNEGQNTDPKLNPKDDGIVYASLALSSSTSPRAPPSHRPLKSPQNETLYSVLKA
Test: flow cytometry, 293 cells expressing target
Procedure: as §1

Binder | EC50 [µg/mL]
B1 | 0.7
B2 | 1.7
B3 | 0.5
B4 | 0.2
B12 | 0.3
B5 | 0.8
B6 | 1.1
B7 | 3.4
B8 | 0.1
B9 | 0.7
B10 | 0.1
B11 | 1.9

Biological target: cynomolgus PILRA, ectopically expressed on 293 cells (cynomolgus monkey)
Sequence (chain, as listed by the source): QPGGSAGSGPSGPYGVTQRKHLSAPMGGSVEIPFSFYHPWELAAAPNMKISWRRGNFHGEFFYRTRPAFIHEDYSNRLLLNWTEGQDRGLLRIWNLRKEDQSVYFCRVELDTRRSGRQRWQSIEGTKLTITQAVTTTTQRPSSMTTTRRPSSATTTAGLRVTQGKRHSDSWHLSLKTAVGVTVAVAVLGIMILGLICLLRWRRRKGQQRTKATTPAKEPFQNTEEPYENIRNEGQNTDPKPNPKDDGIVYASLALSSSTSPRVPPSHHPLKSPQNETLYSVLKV
Test: flow cytometry, 293 cells expressing target
Procedure: as §1

Binder | EC50 [µg/mL] | binding result
B1 | 1.3 | –
B2 | 0.3 | –
B3 | 0.3 | –
B4 | 0.2 | –
B12 | – | no binding
B5 | 14.6 | –
B6 | 17.3 | –
B7 | 2.8 | –
B8 | – | no binding
B9 | – | no binding
B10 | – | no binding
B11 | – | no binding

Biological target: T6, murine PILRB, ectopically expressed on 293 cells (murine, UniProt Q2YFS2 29-224)
T6 construct: whole, on cells; also called mB
T6 sequence (Q2YFS2 29-224): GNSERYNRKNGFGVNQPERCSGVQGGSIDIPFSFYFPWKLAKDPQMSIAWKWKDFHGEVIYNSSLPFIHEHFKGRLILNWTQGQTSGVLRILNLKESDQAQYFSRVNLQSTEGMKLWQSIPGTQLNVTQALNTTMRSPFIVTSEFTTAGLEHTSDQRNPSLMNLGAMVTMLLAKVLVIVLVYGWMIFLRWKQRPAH
Test: flow cytometry, 293 cells expressing target
Procedure: as §1

Binder | binding result
B1 | no binding
B2 | no binding
B3 | no binding
B4 | no binding
B12 | no binding
B5 | no binding
B6 | no binding
B7 | no binding
B8 | no binding
B9 | no binding
B10 | no binding
B11 | no binding

Biological target: T5, human PILRA, G78 variant, ectopically …
Test: flow cytometry; blocking of NPDC1-hIgG1 binding to 293 cells expressing human PILRA G78

Binder | IC50 [µg/mL]
B1 | 0.32
B2 | 5.7
B3 | 0.77
B4 | 0.38
B5 | 0.6
B6 | 0.48
B7 | 0.64
B8 | 0.38
B9 | 0.6
B10 | 0.22
B11 | 1.9
